The text below walks through data of patent publication US20260092093A1 (TJ BIOPHARMA SHANGHAI, published 2026).

T1: recombinant hIL-18Rα extracellular domain (human, UniProt Q13478 22-329, biotin label (selection) or fluorescent probe (single-clone FACS), sites not given)
T1 construct: extracellular domain; also called hIL-18Rα ECD; hIL-18Rα-ECD
T1 sequence (looked up): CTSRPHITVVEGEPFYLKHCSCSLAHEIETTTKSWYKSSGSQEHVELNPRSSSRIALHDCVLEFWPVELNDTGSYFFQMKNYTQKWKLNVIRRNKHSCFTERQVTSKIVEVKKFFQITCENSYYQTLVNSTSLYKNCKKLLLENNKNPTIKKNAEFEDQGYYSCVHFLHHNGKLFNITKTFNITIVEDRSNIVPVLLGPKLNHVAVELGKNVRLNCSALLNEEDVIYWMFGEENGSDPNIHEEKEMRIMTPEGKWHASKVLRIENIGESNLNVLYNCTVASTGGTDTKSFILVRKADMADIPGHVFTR

B1: SEQ ID NO 34 (ligand)
chain: YFPKLKSKLSVIRNLNDQVLFIDQGNRPLFEDMTDSDCRDNAPRTIFIISMYKQSTWRGMAVTISVKCEKISTLSCENKIISFKEMNPPDCIKDTKSDIIFFQRSVPGHDNKMQFESSSYEGYFLACEKERDLFKLILKKEDELGDRSIMFTVQNED
B2: SEQ ID NO 103 (ligand)
chain: B1 chain with P3S, K6P, Q54W, T56P, W57R, C91I, R104S
B3: SEQ ID NO 82 (ligand)
chain: B1 chain with K6R, Q54L, W57I, C91Y
B4: SEQ ID NO 36 (ligand)
chain: B1 chain with K6R, Q54W, T56R, W57P, C91S, R104Y
B5: SEQ ID NO 95 (ligand)
chain: B1 chain with P3W, K6S, Q54L, C91Y
B6: SEQ ID NO 93 (ligand)
chain: B1 chain with P3G, K6P, Q54L, T56N, W57R, C91G
B7: SEQ ID NO 83 (ligand)
chain: B1 chain with P3W, K6W, Q54P, T56N, W57F, C91V, R104G
B8: SEQ ID NO 63 (ligand)
chain: B1 chain with K6Q, Q54L, W57P, C91A
B9: SEQ ID NO 85 (ligand)
chain: B1 chain with Q54W, T56G, W57G, C91S, R104F
B10: SEQ ID NO 67 (ligand)
chain: B1 chain with P3T, K6R, Q54L, T56H, W57L, M60I, C91A, R104S
B11: SEQ ID NO 53 (ligand)
chain: B1 chain with K6R, Q54L, T56G, C91V
B12: SEQ ID NO 84 (ligand)
chain: B1 chain with Q54M, T56S, W57A, C91G, R104S
B13: SEQ ID NO 98 (ligand)
chain: B1 chain with K6T, Q54Y, W57R, C91N
B14: SEQ ID NO 75 (ligand)
chain: B1 chain with K6G, Q54H, T56S, W57R, C91V, R104N
B15: SEQ ID NO 64 (ligand)
chain: B1 chain with K6N, Q54V, S55P, W57A, C91A
B16: SEQ ID NO 77 (ligand)
chain: B1 chain with K6R, Q54H, T56Y, W57T, C91I, R104Y
B17: SEQ ID NO 52 (ligand)
chain: B1 chain with P3W, Q54P, T56S, W57H, C91V, R104L
B18: SEQ ID NO 88 (ligand)
chain: B1 chain with K6S, Q54H, T56S, W57R, C91V, R104A
B19: SEQ ID NO 97 (ligand)
chain: B1 chain with Q54T, T56F, W57N, C91V
B20: SEQ ID NO 76 (ligand)
chain: B1 chain with Q54W, T56W, W57A, C91L, R104Y
B21: SEQ ID NO 100 (ligand)
chain: B1 chain with P3S, K6P, Q54Y, C91F, R104S
B22: SEQ ID NO 79 (ligand)
chain: B1 chain with K6G, Q54W, T56Q, W57P, C91V, R104Y
B23: SEQ ID NO 40 (ligand)
chain: B1 chain with Q54L, T56G, W57A, C91V
B24: SEQ ID NO 101 (ligand)
chain: B1 chain with Q54L, T56R, W57T, C91F, R104S
B25: SEQ ID NO 45 (ligand)
chain: B1 chain with K6R, Q54H, T56Y, W57G, C91A, R104T
B26: SEQ ID NO 46 (ligand)
chain: B1 chain with K6G, Q54H, T56D, W57P, C91V, R104M
B27: SEQ ID NO 90 (ligand)
chain: B1 chain with K6R, Q54S, T56L, W57K, C91T, R104S
B28: SEQ ID NO 42 (ligand)
chain: B1 chain with P3E, K6R, Q54W, T56P, W57D, C91V, R104V
B29: SEQ ID NO 71 (ligand)
chain: B1 chain with K6Y, Q54H, W57N, C91G
B30: SEQ ID NO 96 (ligand)
chain: B1 chain with K6H, Q54R, W57L, C91G
B31: SEQ ID NO 57 (ligand)
chain: B1 chain with Q54H, T56R, W57A, C91S, R104T
B32: SEQ ID NO 87 (ligand)
chain: B1 chain with K6G, Q54G, T56H, W57F, C91G, R104S
B33: SEQ ID NO 102 (ligand)
chain: B1 chain with K6R, Q54F, T56N, W57F, C91A, R104S
B34: SEQ ID NO 89 (ligand)
chain: B1 chain with K6A, Q54H, T56S, W57K, C91V, R104V
B35: SEQ ID NO 78 (ligand)
chain: B1 chain with P3K, K6P, R13H, Q54L, T56S, W57E, C91N
B36: SEQ ID NO 48 (ligand)
chain: B1 chain with P3F, Q54P, T56P, W57P, C91T, R104Y
B37: SEQ ID NO 70 (ligand)
chain: B1 chain with K6R, Q54W, T56G, W57G, C91A, R104L
B38: SEQ ID NO 37 (ligand)
chain: B1 chain with K6R, Q54G, T56G, W57I, C91G
B39: SEQ ID NO 106 (ligand)
chain: B1 chain with K6S, Q54A, T56S, W57L, C91S
B40: SEQ ID NO 47 (ligand)
chain: B1 chain with K6R, Q54L, W57V, C91G, R104H
B41: SEQ ID NO 80 (ligand)
chain: B1 chain with K6R, Q54W, T56Y, W57P, C91G, R104F
B42: SEQ ID NO 68 (ligand)
chain: B1 chain with Q54W, T56P, C91N, R104T
B43: SEQ ID NO 86 (ligand)
chain: B1 chain with K6N, Q54L, W57V, C91P, R104H
B44: SEQ ID NO 51 (ligand)
chain: B1 chain with K6R, Q54W, T56A, W57V, C91S, R104S
B45: SEQ ID NO 60 (ligand)
chain: B1 chain with Q54H, T56S, W57T, C91V, R104C
B46: SEQ ID NO 61 (ligand)
chain: B1 chain with Q54F, W57E, C91P
B47: SEQ ID NO 92 (ligand)
chain: B1 chain with P3W, K6S, T56L, W57R, C91R, R104A
B48: SEQ ID NO 69 (ligand)
chain: B1 chain with K6V, Q54W, T56A, W57I, C91V, R104T
B49: SEQ ID NO 107 (ligand)
chain: B1 chain with K6T, Q54T, T56Y, W57E, C91V

Numbering of substitutions follows the chain as printed.

This assay deals with T1, recombinant hIL-18Rα extracellular …. The experiment in a line: single-clone FACS, yeast display, 10 nM labelled hIL-18Rα ECD. The method, then:
Following the screens described in Example 2, single clone FACS analysis was performed to verify the binding of selected yeast cell surface-expressed IL-18 variant polypeptides from Round 4 and Round 5 to 10 nM hIL-18Rα-ECD. Briefly, each yeast clone at the same density was incubated with 10 nM IL-18Rα-ECD labeled by fluorescent probe, respectively, followed by washing step. Then the ratio of fluorescent positive IL-18Rα ECD binding yeasts in the population of each clone were analyzed.
In the case of B1, the “% of fluorescence positive cells” value was 88.6%.
In the case of B2 it was 1.44%.
Next, B3: 14.5%.
Take B4: the “% of fluorescence positive cells” value was determined as 88.5%.
As for B5, the “% of fluorescence positive cells” value was determined as 3.45%.
For B6, the “% of fluorescence positive cells” value came to 4.48%.
In the case of B7 it was 13.5%; in that of B8, 72.6%; in that of B9, 10.8%.
Next, B10: 66.4%; B11: 82.4%.
In the case of B12 it was 11.5%.
For B13, the “% of fluorescence positive cells” value came out at 2.36%.
Next, B14: 30%; B15: 70.8%.
Next, B16: 28.4%; B17: 83%.
On to B18, for which the “% of fluorescence positive cells” value is 5.45%.
Take B19: the “% of fluorescence positive cells” value stood at 2.66%.
In the case of B20 it was 29.7%; in that of B21, 2.16%; in that of B22, 21.5%.
Consider B23, for which the “% of fluorescence positive cells” value is 87.9%.
Next, B24: 1.91%; B25: 86.1%.
In the case of B26 it was 84.9%; in that of B27, 5.15%.
Next, B28: 87.2%; B29: 45.1%.
Turning to B30, the “% of fluorescence positive cells” value came to 2.79%.
Next, B31: 79%; B32: 6.12%; B33: 1.64%.
On to B34, for which the “% of fluorescence positive cells” value came to 5.27%.
Next, B35: 27.8%.
As to B36, the “% of fluorescence positive cells” value worked out at 83.8%.
In the case of B37 it was 51.3%.
Next, B38: 88.4%; B39: 1.34%; B40: 84.7%.
Next, B41: 18.6%; B42: 60.9%.
B43: the “% of fluorescence positive cells” value amounted to 9.28%.
In the case of B44 it was 83.1%.
In the case of B45 it was 76.5%.
In the case of B46 it was 76.1%; in that of B47, 4.48%; in that of B48, 60.9%.
On to B49, for which the “% of fluorescence positive cells” value came to 1.23%.
